Changes are numbered by the printed parent chain. Several values for one entry are separate records, joined by “and”; a condition that tells them apart may be missing. Equal entries are not always repeated.
B1: recombinant mouse neutral sphingomyelinase-2 with C-terminal FLAG and 6xHis tags (pET-32a-nSMase-2-FLAG-6xHis), expressed in Rosetta2 (DE3) pLysS (enzyme, UniProt Q9JJY3 1-655, looked up)
chain: MVLYTTPFPNSCLSALHAVSWALIFPCYWLVDRLLASFIPTTYEKRQRADDPCCLQLFCTVLFTPVYLALLVAALPFAFLGFIFWSPLQSARRPYSYSRLEDKNPAGGAALLSEWKGTGAGKSFCFATANVCLLPDSLARLNNVFNTQARAKEIGQRIRNGAARPQIKIYIDSPTNTSISAASFSSLVSPQGGDGSRAVPGSIKRTASVEYKGDGGRHPSDEAANGPASGEQADGSLEDSCIVRIGGEEGGRPQEADDPAAGSQARNGAGGTPKGQTPNHNQRDGDSGSLGSPSASRESLVKARAGQDSGGSGEPGANSKLLYKTSVVKKAAARRRRHPDEAFDHEVSAFFPANLDFLCLQEVFDKRAAAKLKEQLHGYFEYILYDVGVYGCHGCCNFKCLNSGLFFASRYPVMDVAYHCYPNGCSFDALASKGALFLKVQVGSTPQDQRIVGYIACTHLHAPPEDSAVRCEQLDLLQDWLADFRKSTSSTSTANPEELVVFDVICGDLNFDNCSSDDKLEQQHSLFTRYKDPCRLGPGEEKPWAIGTLLDTNGLYDEDVCTPDNLQKVLESEEGRREYLAFPTSKSPGAGQKGRKDLLKGNGRRIDYMLHAEEGLCPDWKAEVEEFSFITQLSGLTDHLPVAMRLMVSAGEEEA
B2: nSMase-2 single-point mutant Cys561Ser (enzyme, mouse, UniProt Q9JJY3 1-655, looked up)
chain: B1 chain with C561S
B3: nSMase-2 single-point mutant Cys617Ser (enzyme, mouse, UniProt Q9JJY3 1-655, looked up)
chain: B1 chain with C617S

Biological target: the molecule itself
Assay: non-reducing SDS/PAGE and Western blot

| Protein | stoichiometry N | decrease in multimer to monomer ratio against wild-type [%] |
| --- | --- | --- |
| B1 | 2 and 3 |  |
| B2 |  | ~50 |
| B3 |  | ~50 |
